Reference: patent publication US10501493B2, “Broad spectrum antibiotics” (priority 2011, dated 2019)

Assays:
[1] = biological target: T1, decanoyl-LSSPA Y^NO2 A ADK^abzPD (SEQ ID NO: 1)
T1 chain: LSSPAYAADKPD

[2] = biological target: T2, decanyol-LTPTAY^NO2 A ASKK^abzDD (SEQ ID NO: 2)
T2 chain: LTPTAYAASKKDD

B1: Full length His-tagged S. aureus SPase (protein)
chain: MKKELLEWIISIAVAFVILFIVGKFIVTSYTIKGESMDPTLKDGERVAVNIIGYKTGGLEKGNVVVFHANKNDDYVKRVIGVPGDKVEYKNDTLYVNGKKQDEPYLNYNLKHKQGDYITGTFQVKDLPNANPKSNVIPKGKYLVLGDNREVSKDSRAFGLIDEDQIVGKVSFRFWPFSEFKHNFNPENTKN
second order rate constant (Kcat/KM) of substrate cleavage [1]: 10^5 M^-1s^-1 | second order rate constant (Kcat/KM) of substrate cleavage [2]: 10^5 M^-1s^-1
